# Measurements published in the nanobody polyreactivity screen of Harvey et al. (2022).
# Assay: yeast display, Sf9 membrane polyspecificity reagent, FACS + sequencing; frameworks hold sequencing errors
# In short: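 A synthetic nanobody library was expressed on Saccharomyces cerevisiae BJ5465 by galactose induction for 36–48 hours. The library was stained for 1 hour at 4 °C with 10% biotinylated, detergent-solubilized Sf9 membrane reagent and enriched with streptavidin microbeads before FACS. Low and high (top ~1%) gates were set on anti-HA fluorescence for expression and streptavidin fluorescence for reagent binding, and each polyreactivity label reflects the gate of origin.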
row,Sequence,polyreactivity (PSR sort gate)
1,QVQLEESGGGLVQAGVSLRLSCAASGRIFSSNAMGWYRQAPGKERELVAAITYSAGSTYYAVSVKGRFTISRDNAKNTVYLQMNSLKPEDTAVYYCAADSYYDRTIQFEFYARTYDYWGQGTQVTVSS,low polyreactivity
2,QVQLVESGGGLVQAGGSLRLSCAASGLYAMGWYRQAPGKERELVADINSSGGSITNYADSVKGRFTISRDNAKNTVYLQMNSLKPEDTAVYYCAAPALGNYFYGYDYWGQGTQVTVSS,low polyreactivity
3,QVQLVESGGGLVQAGGSLRLSCAASGFNFRYYTMGWYRQAPGTERELVAVITSGGTTYYADSVKGRFTISRDNAKNTVYLQMNSLKPEDTAVYYCAADYRPRLYGVGVDYWGQGTQVTVSS,low polyreactivity
4,QVQLVESGGGLVQAGGSLRLSCAASGRTFGKYAMAWYRQAPGKERELVAAITTRVVITYYADSVKGRFTISRDNAKNTVYLQMNSLKPEDTAVYYCAADPEKIYRPVNHYYYWGQGTQVTVSS,low polyreactivity
5,QVQLVESGGGLVQAGGSLRLSCAASGSIFAKNAMGWYRQAPGKERELVAGIDFSGGSTYYADSVKGRFTISRDNAKNTVYLQMNSLKPEDTAVDYCAADWAYKYELDYWGQGTQVTVSS,low polyreactivity
6,QVHLVESGGCLVQAGGSLRLSCAAYGSIFPKYALGWYRQAPGKERELVATISYRGGRTYYADSVKRRFTISRDNAKNTVYLQMNSLKPEDTAVYYWNAHSQAKLDYWGQGTQVTVSS,low polyreactivity
7,QVQLVESGGGLVQAGGSLRLSCAASGSIFDFNAMGWYRQAPGKERELVAAITWGGGSTYYADSVKGRFTISRDNAKNTVYLQMNSLKPEDTAVYYCNAAYGRYRYDYWGQGTQVTVSS,low polyreactivity
8,QVQLVESGGGLVQAGGSLRLSCAASGSTFPVNAMGWYRQAPGKERELVARIRGSGGSTYYADSVKGRFTISRDNAKNTVYLQINSLKPEDTAVYYCAARYIGYSSYKYDYWGQGTQVTVSS,high polyreactivity
9,QVQLVESGGGLVHAGGSLRLSCAASGFIFFSNAMGWYRQAPGKERELVATISTSSGSTYADSVKGRFTNSRDNAKNTVYLQMNSLKPEDTAVYYCAADTQGYDYDYWGQGTQVTVSS,low polyreactivity
10,QVQIVESGGGLFQAGGSLRLSCAASGGIFREYAMGWSRQAPGKERELVAVISDSGAGTYYADSVKGRFTISRDNAKNTVSLQMNSLKPEDTEVYYCAQGTARLDFPDMDPWGQGTQVTVSS,low polyreactivity
11,QVQLVESGGGLVQAGGSLRLSCAASGITFVHYAMGWYRQAPGKEREFVAAITKGGGSTSYADSVKGRFTISRDNAKNTVYLQMNSLKPEDTAVYYCAATYYAYGFSISYYYWGQGTQVTVSS,high polyreactivity
12,QVQLVESGGGLVQAGGSLRLSSAASGRIFYGYTMGWYRQAPGKERELVAAITQSSGSTYYADSVKGRFTISRDNAKNTVYLQMNSLKPEDTAVYYCARDPGRRYSYTYDYWGQGTQVTVSS,low polyreactivity
13,QVQLVESGGGLVQAGGSLRLSCAASGSTFWPNAMGWYRQAPGKERELVAAITGGGGTNYADSVKGRFTISRDNAKNTVYLQMNSLKPEDTAVYYCAAKKVNSRSHVKYYYWGQGTQVTVSS,high polyreactivity
14,QVQLVESGGGLVQAGGSLRLSCAASGSTFDPYAMGWYRQAPGKERELVATITYSGGRTYYADSVKGRFTISRDNAKNTVYLQMNSLKPEDTAVYYCAARVYTHYREFDYWGQGTQVTVSS,low polyreactivity
15,QVQLVESGGGLVQAGGSLRLSCAASGFIFGSNAMGWYRQAPGKERELVAAISRSGGSTYYADTVKGRFTISRDNAKNTVYLQMNSLKPEDTAVYYCNVDLWPFVYSWWSYDYWGQGTQVTVSS,high polyreactivity
16,QVQLVESGGGLVQAGGSLRLSCAASGSIFYGNAMGWYRPAPGKERELVAGITSGVGTNYADSVKGRFTISRDNAKNTVYLQMNSLKPEDTAVYYCNARYVYWIKGHDYWGQGTQVTVSS,high polyreactivity

row,Sequence,polyreactivity (PSR sort gate)
1,QVQLVESGGGLVQAGGSLRLSCAASGFIFKYYAMGCYRQAPGKERELVAVISRSGGGTYYADSVKGRYTISRDHAKNTVYLQMNSLKTEDTAVYYCAAERSSGFDYWGQGTQVTVSS,high polyreactivity
2,QVQLVDSGGGLVQAGGSLPLSCAASGSIFDDYAMGWNRKAPGKERELVAAISGGVSTNYADSVKGRFTISRDNAKKTDYLQINSLKPEDTAVYYCNADYARAYIHEYWGQGTQVTVSS,low polyreactivity
3,QVQLVESGGGLVQAGGSLRLSCAASGSIFFIYAMGWYRQAPGKERELVAAISWSDDSTYYADSVKGRFTISRDNAKNTVYLQMNSLKPEDTAVYYCAARYYIGYGHRTYGYDYWGQGTQVTVSS,high polyreactivity
4,QVQLVESGGGLVQAGGSLRLSCADSGSTIYPYAMGWYRQAPGKERELVAAINRSGGRTYYADSVKGRFTISRDNAKNTVYLQMISLKPEDTAVYYCAARVRSRNSYDYWGQGTQVTVSS,low polyreactivity
5,QVQLVESGGGLVQAGGSLRLSCAASGLIFSRYTMGWYRQAPGKERELVAAISLGGGRTYYADSVKGRFTISRDNAKNTVYLQMNSLKPEDTAVYYCAATRYYSSDYWGQGTQVTVSS,low polyreactivity
6,QVQLVESGGGLVQAGGSLRLSCAASGRIFFIYPMGWYRQAPGKERELVAGINRTGGSTYYADSVKGRFTISRDNAKNTVYLQMNSLKPEDTAVYYCAAVSYYASDYRYDYWGQGTQVTVSS,low polyreactivity
7,QVHLVESGGGLDQAGASLRITSAATGFTFRQNVKRWYRQAPGKESEFVATITWSGGRTSYADSVKGRFTISRDNAKNTVYLQMNSLKPEDTAVYYCAARFFSYSQYAYNYWGQGTQVTVSS,high polyreactivity
8,QVQLVESGGGLVQAGGSLRLSCAASGNIFYPYAMGWYRQAPGKERELVAAISWSDGSTYYADSVKGRFTISRDNAKNTVYLQMNILKPEDTAVYYCAAEAYISNYYGRDYWGQGTQVTVSS,high polyreactivity
9,QVQLVESGGGLVQAGGSLRLSCAASGPTFYLYDTMGWYRQAPGKERELVAAISWDDGDTYYADSVKGRFTISRDNAKTTVYLQMNSLKPEDTAVYYCAAEYLSGAHGYWGQGTHVTVSS,low polyreactivity
10,QVQLVESGGGLVQAGGSLRLSCAASGRIFEAYAMGWYRQAPGKERELVAAISGSGGSTYYADSVKGRFTISRDNAKNTVYLQMNSLKPEDTAVYYCAADDYYRVYWGQGTQVTVSS,high polyreactivity
11,QVQLVESGGGSVQAGGRLRLSCAASGLIFAGYARGWYRQSPGKERELVAASSTSGGRTYYADSVKGRFTISRDNAKNTVYLQINSLTPEDTAVYYCAAYPVHGKTQELAKEDYWGQGTQVTVSS,high polyreactivity
12,QVQLVESGGGLVQAGGSLRLRCAASGSTFWSYAMGWYRQAPGKERELVATITRAGTTNYADSVKGPFTISRDNAKNTVYLQMNSLKPEDTAVYYCAKRKFRWPYQGSYSYIPFGYWGQGTQVTVSS,high polyreactivity
13,QVQLVESGGGLVQAGGSLRLSCAASGIIFRWYTMGWYRQAPGKERELVAAISTSTGSTYYADSVKGRFTISRDNAKNTVYLQMNSLKPEDTAVYYCAADYAYWNYESYYWGQGTQVTVSS,high polyreactivity
14,QVQLVESGGGLVQAGGSLRLSCAASGRTFAAYAMGWYIQSPGKERELVAAISSTSGNTYYADSVKGRFTISRDNAKNTVYLQMNSLKPEDTAVYYCNAQRRFNANYWYDYWGQGTQVTVSS,high polyreactivity
15,QVQLVESGGGLVQAGGSLRLSCAASGRTFDGYAMGWYRQAPGKERELVAAIDYDGVSTYYADSVKGRFTISRDNAKNTVYLEMNSLKPEDTAVYYCAVDATDDWWLDYWGQGTQVTVSS,low polyreactivity
16,QVQLVESGGGLVQAGGSLRLSCAASGSTFYKYAMGWYRQAPGKERELVASISRSGGSTSYADSVKGRFTISRDNAKNTVYLQMNSLKPEDTEVYYCAATWRQHPGSMGYWGQGTQVTVSS,high polyreactivity
